For data set [1], the target named is 549-SNAP-VopF (Vibrio cholera (so in the source)). Kind of data set: photobleaching step counting of single molecules.
Data set [2] concerns the molecule itself. As to the kind of experiment: photobleaching step counting of single molecules.

The values that follow come from paper PMC5412564 (The Journal of Cell Biology, 2017).

Usually stoichiometry N stands for the number of molecules, sites or subunits per partner or assembly.

With 549-SNAP-VopF (domain or fragment), the stoichiometry N in data set [1] was 2.

B1: 549-SNAP-VopL (domain or fragment)
chain: LSIKHGSSIPPAPPLPGAIPPAPPLNLSKGAPKSSSNSLDSVNEDHSKLMEQIRQGVKLKSATKSLSADKSSADAHSKLMEELLTGGRKLKKVATSDIPAPPPLPSASTSKSPDSRNALLSEIAGFSKDRLRKTGSLETLNSSQSKDKESFEPTTHERLLSEDLFKQSPKLSEQELDELANNLADYLFQAADIDWHQVISEKTRGLTTEEMAKSEHRYVQAFCREILKYPDCYKSADVASPESPKSGGGSVIDVALKRLQTGRERLFTTTDEKGNRELKKGDAILESAINAARMAISTEEKNTILSNNVKSATFEVFCELPCMDGFAEQNGKTAFYALRAGFYSAFKNTDTAKQDITKFMKDNLQAGFSGYSYQGLTNRVAQLEAQLAALSAKLS
modifications: SNAP-Surface 549 on the SNAP-tag (labeling efficiency ~75%)
Consider B1, for which the “stoichiometry N” value in data set [2] worked out at 2.
